The target of the test is fibronectin 70 kDa N-terminal fragment. In words: SPR; BIAcore X; FN 70 kDa fragment immobilised on a CM5 chip; HGF (30–500 nM) injected in HEPES saline pH 7.4 with 1 mM MgCl2, 2 mM CaCl2; equilibrium and Scatchard analysis; apparent Kd; n = 3. Background: Surface plasmon resonance follows binding to a sensor surface in real time, without labels.

For “hepatocyte growth factor (from UniProt P14210 32-728) (ligand)”, the Kd amounted to 300 nM, the Kd of the high affinity site (two-site model) came out at 15 nM and the Kd of the low affinity site (two-site model) worked out at 4 µM.

These data come from PMC553973.
